Measurements taken from the supplement of paper PMC12458215.
± gives the uncertainty stated by the source.

Tested on: HEK293T
Test: plasma membrane surface immunostaining intensity (anti-HA, deep receptor scanning) (arbitrary fluorescence units); higher = higher plasma membrane expression

Sequence | plasma membrane surface immunostaining intensity (GPCR class: A (Olfactory)) | plasma membrane surface immunostaining intensity (GPCR class: A) | other results
MTNQTQMMEFLLVRFTENWVLLRLHALLFSLIYLTAVLMNLVIILLMILDHRLHMAMYFFLRHLSFLDLCLISATVPKSILNSVASTDSISFLGCVLQLFLVVLLAGSEIGILTAMSYDRYAAICCPLHCEAVMSRGLCVQLMALSWLNRGALGLLYTAGTFSLNFYGSDELHQFFCDVPALLKLTCSKEHAIISVSVAIGVCYAFSCLVCIVVSYVYIFSAVLRISQRQRQSKAFSNCVPHLIVVTVFLVTGAVAYLKPGSDAPSILDLLVSVFYSVAPPTLNPVIYCLKNKDIKSALSKVLWNVRSSGVMKR [OR14K1] | 155 ± 35 | – | –
MYKDCIESTGDYFLLCDAEGPWGIILESLAILGIVVTILLLLAFLFLMRKIQDCSQWNVLPTQLLFLLSVLGLFGLAFAFIIELNQQTAPVRYFLFGVLFALCFSCLLAHASNLVKLVRGCVSFSWTTILCIAIGCSLLQIIIATEYVTLIMTRGMMFVNMTPCQLNVDFVVLLVYVLFLMALTFFVSKATFCGPCENWKQHGRLIFITVLFSIIIWVVWISMLLRGNPQFQRQPQWDDPVVCIALVTNAWVFLLLYIVPELCILYRSCRQECPLQGNACPVTAYQHSFQVENQELSRARDSDGAEEDVALTSYGTPIQPQTVDPTQECFIPQAKLSPQQDAGGV [GPRC5D] | – | – | plasma membrane surface immunostaining intensity (GPCR class: C): 6410 ± 68
MRMEDEDYNTSISYGDEYPDYLDSIVVLEDLSPLEARVTRIFLVVVYSIVCFLGILGNGLVIIIATFKMKKTVNMVWFLNLAVADFLFNVFLPIHITYAAMDYHWVFGTAMCKISNFLLIHNMFTSVFLLTIISSDRCISVLLPVWSQNHRSVRLAYMACMVIWVLAFFLSSPSLVFRDTANLHGKISCFNNFSLSTPGSSSWPTHSQMDPVGYSRHMVVTVTRFLCGFLVPVLIITACYLTIVCKLQRNRLAKTKKPFKIIVTIIITFFLCWCPYHTLNLLELHHTAMPGSVFSLGLPLATALAIANSCMNPILYVFMGQDFKKFKVALFSRLVNALSEDTGHSSYPSHRSFTKMSSMNERTSMNERETGML [CMKLR1] | – | 747 ± 64 | –
MAANVSGAKSCPANFLAAADDKLSGFQGDFLWPILVVEFLVAVASNGLALYRFSIRKQRPWHPAVVFSVQLAVSDLLCALTLPPLAAYLYPPKHWRYGEAACRLERFLFTCNLLGSVIFITCISLNRYLGIVHPFFARSHLRPKHAWAVSAAGWVLAALLAMPTLSFSHLKRPQQGAGNCSVARPEACIKCLGTADHGLAAYRAYSLVLAGLGCGLPLLLTLAAYGALGRAVLRSPGMTVAEKLRVAALVASGVALYASSYVPYHIMRVLNVDARRRWSTRCPSFADIAQATAALELGPYVGYQVMRGLMPLAFCVHPLLYMAAVPSLGCCCRHCPGYRDSWNPEDAKSTGQALPLNATAAPKPSEPQSRELSQ [P2RY11] | – | 4350 ± 520 | –
MFLYLCFIFQRTCSEEMEEENATLLTEFVLTGFLHQPDCKIPLFLAFLVIYLITIMGNLGLIVLIWKDPHLHIPMYLFLGSLAFVDASLSSTVTPKMLINFLAKSKMISLSECMVQFFSLVTTVTTECFLLATMAYDRYVAICKALLYPVIMTNELCIQLLVLSFIGGLLHALIHEAFSFRLTFCNSNIIQHFYCDIIPLLKISCTDSSINFLMVFIFAGSVQVFTIGTILISYTIILFTILEKKSIKGIRKAVSTCGAHLLSVSLYYGPLTFKYLGSASPQADDQDMMESLFYTVIVPLLNPMIYSLRNKQVIASFTKMFKSNV [OR5H6] | 123 ± 24 | – | –
MTTSPILQLLLRLSLCGLLLQRAETGSKGQTAGELYQRWERYRRECQETLAAAEPPSGLACNGSFDMYVCWDYAAPNATARASCPWYLPWHHHVAAGFVLRQCGSDGQWGLWRDHTQCENPEKNEAFLDQRLILERLQVMYTVGYSLSLATLLLALLILSLFRRLHCTRNYIHINLFTSFMLRAAAILSRDRLLPRPGPYLGDQALALWNQALAACRTAQIVTQYCVGANYTWLLVEGVYLHSLLVLVGGSEEGHFRYYLLLGWGAPALFVIPWVIVRYLYENTQCWERNEVKAIWWIIRTPILMTILINFLIFIRILGILLSKLRTRQMRCRDYRLRLARSTLTLVPLLGVHEVVFAPVTEEQARGALRFAKLGFEIFLSSFQGFLVSVLYCFINKEVQSEIRRGWHHCRLRRSLGEEQRQLPERAFRALPSGSGPGEVPTSRGLSSGTLPGPGNEASRELESYC [GIPR] | – | – | plasma membrane surface immunostaining intensity (GPCR class: B): 6435 ± 30
MDLGKPMKSVLVVALLVIFQVCLCQDEVTDDYIGDNTTVDYTLFESLCSKKDVRNFKAWFLPIMYSIICFVGLLGNGLVVLTYIYFKRLKTMTDTYLLNLAVADILFLLTLPFWAYSAAKSWVFGVHFCKLIFAIYKMSFFSGMLLLLCISIDRYVAIVQAVSAHRHRARVLLISKLSCVGIWILATVLSIPELLYSDLQRSSSEQAMRCSLITEHVEAFITIQVAQMVIGFLVPLLAMSFCYLVIIRTLLQARNFERNKAIKVIIAVVVVFIVFQLPYNGVVLAQTVANFNITSSTCELSKQLNIAYDVTYSLACVRCCVNPFLYAFIGVKFRNDLFKLFKDLGCLSQEQLRQWSSCRHIRRSSMSVEAETTTTFSP [CCR7] | – | 2440 ± 380 | –
MASPSLPGSDCSQIIDHSHVPEFEVATWIKITLILVYLIIFVMGLLGNSATIRVTQVLQKKGYLQKEVTDHMVSLACSDILVFLIGMPMEFYSIIWNPLTTSSYTLSCKLHTFLFEACSYATLLHVLTLSFERYIAICHPFRYKAVSGPCQVKLLIGFVWVTSALVALPLLFAMGTEYPLVNVPSHRGLTCNRSSTRHHEQPETSNMSICTNLSSRWTVFQSSIFGAFVVYLVVLLSVAFMCWNMMQVLMKSQKGSLAGGTRPPQLRKSESEESRTARRQTIIFLRLIVVTLAVCWMPNQIRRIMAAAKPKHDWTRSYFRAYMILLPFSETFFYLSSVINPLLYTVSSQQFRRVFVQVLCCRLSLQHANHEKRLRVHAHSTTDSARFVQRPLLFASRRQSSARRTEKIFLSTFQSEAEPQSKSQSLSLESLEPNSGAKPANSAAENGFQEHEV [GPR39] | – | 5870 ± 200 | –
MKIANNTVVTEFILLGLTQSQDIQLLVFVLILIFYLIILPGNFLIIFTIRSDPGLTAPLYLFLGNLAFLDASYSFIVAPRMLVDFLSEKKVISYRGCITQLFFLHFLGGGEGLLLVVMAFDRYIAICRPLHCSTVMNPRACYAMMLALWLGGFVHSIIQVVLILRLPFCGPNQLDNFFCDVRQVIKLACTDMFVVELLMVFNSGLMTLLCFLGLLASYAVILCHVRRAASEGKNKAMSTCTTRVIIILLMFGPAIFIYICPFRALPADKMVSLFHTVIFPLMNPMIYTLRNQEVKTSMKRLLSRHVVCQVDFIIRN [OR4N4C] | 323 ± 130 | – | –
MQGPLLLPGLCFLLSLFGAVTQKTKTSCAKCPPNASCVNNTHCTCNHGYTSGSGQKLFTFPLETCNDINECTPPYSVYCGFNAVCYNVEGSFYCQCVPGYRLHSGNEQFSNSNENTCQDTTSSKTTEGRKELQKIVDKFESLLTNQTLWRTEGRQEISSTATTILRDVESKVLETALKDPEQKVLKIQNDSVAIETQAITDNCSEERKTFNLNVQMNSMDIRCSDIIQGDTQGPSAIAFISYSSLGNIINATFFEEMDKKDQVYLNSQVVSAAIGPKRNVSLSKSVTLTFQHVKMTPSTKKVFCVYWKSTGQGSQWSRDGCFLIHVNKSHTMCNCSHLSSFAVLMALTSQEEDPVLTVITYVGLSVSLLCLLLAALTFLLCKAIRNTSTSLHLQLSLCLFLAHLLFLVGIDRTEPKVLCSIIAGALHYLYLAAFTWMLLEGVHLFLTARNLTVVNYSSINRLMKWIMFPVGYGVPAVTVAISAASWPHLYGTADRCWLHLDQGFMWSFLGPVCAIFSANLVLFILVFWILKRKLSSLNSEVSTIQNTRMLAFKATAQLFILGCTWCLGLLQVGPAAQVMAYLFTIINSLQGFFIFLVYCLLSQQVQKQYQKWFREIVKSKSESETYTLSSKMGPDSKPSEGDVFPGQVKRKY [ADGRE3] | – | – | plasma membrane surface immunostaining intensity (GPCR class: B): 344 ± 13
MRTLNTSAMDGTGLVVERDFSVRILTACFLSLLILSTLLGNTLVCAAVIRFRHLRSKVTNFFVISLAVSDLLVAVLVMPWKAVAEIAGFWPFGSFCNIWVAFDIMCSTASILNLCVISVDRYWAISSPFRYERKMTPKAAFILISVAWTLSVLISFIPVQLSWHKAKPTSPSDGNATSLAETIDNCDSSLSRTYAISSSVISFYIPVAIMIVTYTRIYRIAQKQIRRIAALERAAVHAKNCQTTTGNGKPVECSQPESSFKMSFKRETKVLKTLSVIMGVFVCCWLPFFILNCILPFCGSGETQPFCIDSNTFDVFVWFGWANSSLNPIIYAFNADFRKAFSTLLGCYRLCPATNNAIETVSINNNGAAMFSSHHEPRGSISKECNLVYLIPHAVGSSEDLKKEEAAGIARPLEKLSPALSVILDYDTDVSLEKIQPITQNGQHPT [DRD1] | – | 1460 ± 310 | –
MEGNKTWITDITLPRFQVGPALEILLCGLFSAFYTLTLLGNGVIFGIICLDCKLHTPMYFFLSHLAIVDISYASNYVPKMLTNLMNQESTISFFPCIMQTFLYLAFAHVECLILVVMSYDRYADICHPLRYNSLMSWRVCTVLAVASWVFSFLLALVPLVLILSLPFCGPHEINHFFCEILSVLKLACADTWLNQVVIFAACVFILVGPLCLVLVSYLRILAAILRIQSGEGRRKAFSTCSSHLCVVGLFFGSAIVTYMAPKSRHPEEQQKVLSLFYSLFNPMLNPLIYSLRNAEVKGALRRALRKERLT [OR2A14] | 121 ± 40 | – | –
MERTNDSTSTEFFLVGLSAHPKLQTVFFVLILWMYLMILLGNGVLISVIIFDSHLHTPMYFFLCNLSFLDVCYTSSSVPLILASFLAVKKKVSFSGCMVQMFISFAMGATECMILGTMALDRYVAICYPLRYPVIMSKGAYVAMAAGSWVTGLVDSVVQTAFAMQLPFCANNVIKHFVCEILAILKLACADISINVISMTGSNLIVLVIPLLVISISYIFIVATILRIPSTEGKHKAFSTCSAHLTVVIIFYGTIFFMYAKPESKASVDSGNEDIIEALISLFYGVMTPMLNPLIYSLRNKDVKAAVKNILCRKNFSDGK [OR13C8] | 129 ± 16 | – | –
MPIMGSSVYITVELAIAVLAILGNVLVCWAVWLNSNLQNVTNYFVVSLAAADIAVGVLAIPFAITISTGFCAACHGCLFIACFVLVLTQSSIFSLLAIAIDRYIAIRIPLRYNGLVTGTRAKGIIAICWVLSFAIGLTPMLGWNNCGQPKEGKNHSQGCGEGQVACLFEDVVPMNYMVYFNFFACVLVPLLLMLGVYLRIFLAARRQLKQMESQPLPGERARSTLQKEVHAAKSLAIIVGLFALCWLPLHIINCFTFFCPDCSHAPLWLMYLAIVLSHTNSVVNPFIYAYRIREFRQTFRKIIRSHVLRQQEPFKAAGTSARVLAAHGSDGEQVSLRLNGHPPGVWANGSAPHPERRPNGYALGLVSGGSAQESQGNTGLPDVELLSHELKGVCPEPPGLDDPLAQDGAGVS [ADORA2A] | – | 5780 ± 120 | –
MWPNGSSLGPCFRPTNITLEERRLIASPWFAASFCVVGLASNLLALSVLAGARQGGSHTRSSFLTFLCGLVLTDFLGLLVTGTIVVSQHAALFEWHAVDPGCRLCRFMGVVMIFFGLSPLLLGAAMASERYLGITRPFSRPAVASQRRAWATVGLVWAAALALGLLPLLGVGRYTVQYPGSWCFLTLGAESGDVAFGLLFSMLGGLSVGLSFLLNTVSVATLCHVYHGQEAAQQRPRDSEVEMMAQLLGIMVVASVCWLPLLVFIAQTVLRNPPAMSPAGQLSRTTEKELLIYLRVATWNQILDPWVYILFRRAVLRRLQPRLSTRPRSLSLQPQLTQRSGLQ [TBXA2R] | – | 6469 ± 48 | –
MENVTTMNEFLLLGLTGVQELQPFFFGIFLIIYLINLIGNGSILVMVVLEPQLHSPMYFFLGNLSCLDISYSSVTLPKLLVNLVCSRRAISFLGCITQLHFFHFLGSTEAILLAIMAFDRFVAICNPLRYTVIMNPQVCILLAAAAWLISFFYALMHSVMTAHLSFCGSQKLNHFFYDVKPLLELACSDTLLNQWLLSIVTGSISMGAFFLTLLSCFYVIGFLLFKNRSCRILHKALSTCASHFMVVCLFYGPVGFTYIRPASATSMIQDRIMAIMYSAVTPVLNPLIYTLRNKEVMMALKKIFGRKLFKDWQQHH [OR12D3] | 148 ± 34 | – | –
